From the supplement of paper PMC7125110
± gives the standard error. For some assays here: Fewer inactive variants are shown than the library holds.

B1: glmS ribozyme (parent)
chain: AUAAAAGCGCCAGAACUACAGAAAUGUAGUUGACGAGGAGGAGGUUUAUCGAAUUUUCGGCGGAUGCCUCCAAA

What was measured:
Conditions in all cases: with glucosamine-6-phosphate
glucosamine-6-phosphate [1] = variants of: B1; assay: kcat; higher = faster cleavage; RNA array
How it was run: (§1)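 In situ transcription by E. coli RNA polymerase produced barcoded ribozyme variants on sequenced MiSeq chips, and a hybridised Cy3 probe tracked them at 37 °C. Glucosamine-6-phosphate was flowed in at 40 μM to 10 mM in HEPES/KCl/Mg(OAc)2 buffer. kcat and KM were taken from weighted Michaelis–Menten fits of kobs values from exponential decay fits.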

glucosamine-6-phosphate [2] = variants of: B1; assay: KM; higher = weaker cofactor use; RNA array
How it was run: as §1

glucosamine-6-phosphate [3] = variants of: B1; assay: self-cleavage kobs at 160 uM GlcN6P; higher = faster cleavage; RNA array
How it was run: as §1

glucosamine-6-phosphate [4] = variants of: B1; assay: self-cleavage kobs at 2500 uM GlcN6P; higher = faster cleavage; RNA array
How it was run: as §1

glucosamine-6-phosphate [5] = variants of: B1; assay: self-cleavage kobs at 10000 uM GlcN6P; higher = faster cleavage; RNA array
How it was run: as §1

glucosamine-6-phosphate [6] = variants of: B1; assay: self-cleavage kobs at 40 uM GlcN6P; higher = faster cleavage; RNA array
How it was run: as §1

glucosamine-6-phosphate [7] = variants of: B1; assay: self-cleavage kobs at 640 uM GlcN6P; higher = faster cleavage; RNA array
How it was run: as §1

AUAAAAGCGCCAGAACUACAGAAAUGUAGUUGUCGAGGAGGAGGUUUAUCGAACUUUCGGCGGAUGCCUCCAAA [A33U U54C]
kcat (glucosamine-6-phosphate [1]): 0.000118 ± 8e-06 s⁻¹
KM (glucosamine-6-phosphate [2]): 2.88 ± 0.72 mM
self-cleavage kobs at 160 uM GlcN6P (glucosamine-6-phosphate [3]): < 1e-05 s⁻¹
self-cleavage kobs at 2500 uM GlcN6P (glucosamine-6-phosphate [4]): 5.23e-05 ± 2e-05 s⁻¹
self-cleavage kobs at 10000 uM GlcN6P (glucosamine-6-phosphate [5]): 9.17e-05 ± 1.1e-05 s⁻¹

AUAAAAGCGCCAGAACUACAGAAAUGUAGUUGAAGAGGAGGAGGUUUAUCGAAUUUUCGGCGGAUGCCUCGAAA [C34A C71G]
kcat (glucosamine-6-phosphate [1]): 1.15e-05 ± 3.9e-06 s⁻¹
self-cleavage kobs at 160 uM GlcN6P (glucosamine-6-phosphate [3]): < 1e-05 s⁻¹

AUAAAAGCGCCAGAACUACAGAAAUGUAGUUGAAGAGGAGGAGGUUUAUCGAAUUUUCGGCGGAUGGCUCCAAA [C34A C67G]
kcat (glucosamine-6-phosphate [1]): < 1e-05 s⁻¹
self-cleavage kobs at 40 uM GlcN6P (glucosamine-6-phosphate [6]): < 1e-05 s⁻¹
self-cleavage kobs at 160 uM GlcN6P (glucosamine-6-phosphate [3]): < 1e-05 s⁻¹
self-cleavage kobs at 640 uM GlcN6P (glucosamine-6-phosphate [7]): < 1e-05 s⁻¹
self-cleavage kobs at 2500 uM GlcN6P (glucosamine-6-phosphate [4]): < 1e-05 s⁻¹

AUAAAAGCGCCAGAACUACAGAAAUGUAGUUGAGGAGGAGGAGGUUUAUGGAAUUUUCGGCAGAUGCCUCCAAA [C34G C50G G62A]
kcat (glucosamine-6-phosphate [1]): 2.47e-05 ± 3.6e-06 s⁻¹

AUAAAAGCGCCAGAACUACAGAAAUGUAGUUGUCGAGGAGGAGGUUUAUCGAAUGUUCGGCGGAUGCCUCCAAA [A33U U55G]
kcat (glucosamine-6-phosphate [1]): 0.000103 ± 1e-05 s⁻¹
KM (glucosamine-6-phosphate [2]): 1.99 ± 0.57 mM
self-cleavage kobs at 640 uM GlcN6P (glucosamine-6-phosphate [7]): 3.4e-05 ± 1.3e-05 s⁻¹
self-cleavage kobs at 2500 uM GlcN6P (glucosamine-6-phosphate [4]): 5.38e-05 ± 7.7e-06 s⁻¹
self-cleavage kobs at 10000 uM GlcN6P (glucosamine-6-phosphate [5]): 8.77e-05 ± 1e-05 s⁻¹

AUAAAAGCGCCAGAACUACAGAAAUGUAGUUGUCGAGGAGGAGGUUUAUCGAAUCUUCGGCGGAUGCCUCCAAA [A33U U55C]
kcat (glucosamine-6-phosphate [1]): 0.000106 ± 1.2e-05 s⁻¹
KM (glucosamine-6-phosphate [2]): 6.17 ± 1.3 mM
self-cleavage kobs at 40 uM GlcN6P (glucosamine-6-phosphate [6]): < 1e-05 s⁻¹
self-cleavage kobs at 2500 uM GlcN6P (glucosamine-6-phosphate [4]): 3.12e-05 ± 5.7e-06 s⁻¹
self-cleavage kobs at 10000 uM GlcN6P (glucosamine-6-phosphate [5]): 6.51e-05 ± 7.8e-06 s⁻¹

AUAAAAGCGCCAGAACUACAGAAAUGUAGUUGUCGAGGAGGAGGUUUAUCGAAUUUUCGGCGGAUGCCACCAAA [A33U U69A]
kcat (glucosamine-6-phosphate [1]): 2.24e-05 ± 3e-06 s⁻¹
self-cleavage kobs at 40 uM GlcN6P (glucosamine-6-phosphate [6]): < 1e-05 s⁻¹

AUAAAAGCGCCAGAACUACAGAAAUGUAGUUGUCGAGGAGGAGGAUUAUCGAAUUUUCGGCGGAUGCCUCCAAA [A33U U45A]
kcat (glucosamine-6-phosphate [1]): 0.000201 ± 3.4e-05 s⁻¹
KM (glucosamine-6-phosphate [2]): 4.4 ± 1.7 mM
self-cleavage kobs at 40 uM GlcN6P (glucosamine-6-phosphate [6]): < 1e-05 s⁻¹
self-cleavage kobs at 2500 uM GlcN6P (glucosamine-6-phosphate [4]): 7.97e-05 ± 1.2e-05 s⁻¹
self-cleavage kobs at 10000 uM GlcN6P (glucosamine-6-phosphate [5]): 0.000137 ± 1.5e-05 s⁻¹

AUAAAAGCGCCAGAACUACAGAAAUGUAGUUGAAGUGGAGGAGGUUUAUCGAAUUUUCGGCGGAUGCCUCCAAA [C34A A36U]
kcat (glucosamine-6-phosphate [1]): < 1e-05 s⁻¹
self-cleavage kobs at 40 uM GlcN6P (glucosamine-6-phosphate [6]): < 1e-05 s⁻¹
self-cleavage kobs at 640 uM GlcN6P (glucosamine-6-phosphate [7]): < 1e-05 s⁻¹
self-cleavage kobs at 2500 uM GlcN6P (glucosamine-6-phosphate [4]): < 1e-05 s⁻¹
self-cleavage kobs at 10000 uM GlcN6P (glucosamine-6-phosphate [5]): < 1e-05 s⁻¹

AUAAAAGCGCCAGAACUACAGAAAUGUAGUUGUCGAGGAGGAGGUGUAUCGAAUUUUCGGCGGAUGCCUCCAAA [A33U U46G]
kcat (glucosamine-6-phosphate [1]): 1.23e-05 ± 2.7e-06 s⁻¹
self-cleavage kobs at 40 uM GlcN6P (glucosamine-6-phosphate [6]): < 1e-05 s⁻¹
self-cleavage kobs at 160 uM GlcN6P (glucosamine-6-phosphate [3]): < 1e-05 s⁻¹

AUAAAAGCGCCAGAACUACAGAAAUGUAGUUGUCGAGGAGGAGGUUUAUCGAAUUUUCGCCGGAUGCCUCCAAA [A33U G60C]
kcat (glucosamine-6-phosphate [1]): < 1e-05 s⁻¹
self-cleavage kobs at 40 uM GlcN6P (glucosamine-6-phosphate [6]): < 1e-05 s⁻¹
self-cleavage kobs at 640 uM GlcN6P (glucosamine-6-phosphate [7]): < 1e-05 s⁻¹
self-cleavage kobs at 10000 uM GlcN6P (glucosamine-6-phosphate [5]): < 1e-05 s⁻¹

AUAAAAGCGCCAGAACUACAGAAAUGUAGUUGUCGAGGAUGAGGUUUAUCGAAUUUUCGGCGGAUGCCUCCAAA [A33U G40U]
kcat (glucosamine-6-phosphate [1]): 5.28e-05 ± 4e-06 s⁻¹
self-cleavage kobs at 40 uM GlcN6P (glucosamine-6-phosphate [6]): < 1e-05 s⁻¹
self-cleavage kobs at 160 uM GlcN6P (glucosamine-6-phosphate [3]): < 1e-05 s⁻¹
self-cleavage kobs at 10000 uM GlcN6P (glucosamine-6-phosphate [5]): 1.68e-05 ± 7.9e-06 s⁻¹

AUAAAAGCGCCAGAACUACAGAAAUGUAGUUGAAGAGGAGGAGGAUUAUCUAAUUUUCGGCGGAUGCCUCCAAA [C34A U45A G51U]
kcat (glucosamine-6-phosphate [1]): 0.000482 ± 0.00015 s⁻¹
self-cleavage kobs at 640 uM GlcN6P (glucosamine-6-phosphate [7]): 0.000198 ± 5.3e-05 s⁻¹
self-cleavage kobs at 2500 uM GlcN6P (glucosamine-6-phosphate [4]): 0.000272 ± 0.0001 s⁻¹
self-cleavage kobs at 10000 uM GlcN6P (glucosamine-6-phosphate [5]): 0.00041 ± 0.00016 s⁻¹

AUAAAAGCGCCAGAACUACAGAAAUGUAGUUGUCGAGCAGGAGGUUUAUCGAAUUUUCGGCGGAUGCCUCCAAA [A33U G38C]
kcat (glucosamine-6-phosphate [1]): < 1e-05 s⁻¹
self-cleavage kobs at 10000 uM GlcN6P (glucosamine-6-phosphate [5]): < 1e-05 s⁻¹

AUAAAAGCGCCAGAACUACAGAAAUGUAGUUGAGGAGGAGGAGGUUUAUCGAAUUUUCGGGGGAUGCCUCCAAA [C34G C61G]
kcat (glucosamine-6-phosphate [1]): < 1e-05 s⁻¹
self-cleavage kobs at 40 uM GlcN6P (glucosamine-6-phosphate [6]): < 1e-05 s⁻¹
self-cleavage kobs at 640 uM GlcN6P (glucosamine-6-phosphate [7]): < 1e-05 s⁻¹

AUAAAAGCGCCAGAACUACAGAAAUGUAGUUGUCGAGGAGGAGGUUUAUCGAAUUAUCGGCGGAUGCCUCCAAA [A33U U56A]
kcat (glucosamine-6-phosphate [1]): 3.49e-05 ± 1.6e-05 s⁻¹

AUAAAAGCGCCAGAACUACAGAAAUGUAGUUGUCGAGGAGGAGGUUUAUCGAAUUGUCGGCGGAUGCCUCCAAA [A33U U56G]
kcat (glucosamine-6-phosphate [1]): 3.36e-05 ± 2.8e-06 s⁻¹
KM (glucosamine-6-phosphate [2]): 3.37 ± 0.93 mM

AUAAAAGCGCCAGAACUACAGAAAUGUAGUUGUCGAGGAGGAGGUUCAUCGAAUUUUCGGCGGAUGCCUCCAAA [A33U U47C]
kcat (glucosamine-6-phosphate [1]): 3.28e-05 ± 1.2e-05 s⁻¹
self-cleavage kobs at 40 uM GlcN6P (glucosamine-6-phosphate [6]): < 1e-05 s⁻¹
self-cleavage kobs at 10000 uM GlcN6P (glucosamine-6-phosphate [5]): 3.01e-05 ± 1.1e-05 s⁻¹

AUAAAAGCGCCAGAACUACAGAAAUGUAGUUGUCGAGGAGGAGGUUUAUCGAAUUUUAGGCGGAUGCCUCCAAA [A33U C58A]
kcat (glucosamine-6-phosphate [1]): < 1e-05 s⁻¹
self-cleavage kobs at 160 uM GlcN6P (glucosamine-6-phosphate [3]): < 1e-05 s⁻¹
self-cleavage kobs at 640 uM GlcN6P (glucosamine-6-phosphate [7]): < 1e-05 s⁻¹

AUAAAAGCGCCAGAACUACAGAAAUGUAGUUGAGGAGGAGGAGGUUUAUCGGAUUUUCGGCGGAUGCCUCCAAA [C34G A52G]
kcat (glucosamine-6-phosphate [1]): < 1e-05 s⁻¹
self-cleavage kobs at 2500 uM GlcN6P (glucosamine-6-phosphate [4]): < 1e-05 s⁻¹

AUAAAAGCGCCAGAACUACAGAAAUGUAGUUGUCGAGGAGGAGGUUUAUCGAAUUUUCGGCGGAUGCCUCGAAA [A33U C71G]
kcat (glucosamine-6-phosphate [1]): 1.4e-05 ± 2.4e-06 s⁻¹
self-cleavage kobs at 10000 uM GlcN6P (glucosamine-6-phosphate [5]): 1.47e-05 ± 7.1e-06 s⁻¹

AUAAAAGCGCCAGAACUACAGAAAUGUAGUUGUCGAGGAGGAGGUUUAUCGAAUUUUCGGCGGAUGGGUCCAAA [A33U C67G C68G]
kcat (glucosamine-6-phosphate [1]): 9.15e-05 ± 1.3e-05 s⁻¹
self-cleavage kobs at 40 uM GlcN6P (glucosamine-6-phosphate [6]): 6.63e-05 ± 2e-05 s⁻¹
self-cleavage kobs at 160 uM GlcN6P (glucosamine-6-phosphate [3]): 4.67e-05 ± 1.9e-05 s⁻¹
self-cleavage kobs at 640 uM GlcN6P (glucosamine-6-phosphate [7]): 0.000106 ± 1.7e-05 s⁻¹
self-cleavage kobs at 2500 uM GlcN6P (glucosamine-6-phosphate [4]): 9.54e-05 ± 1.6e-05 s⁻¹
self-cleavage kobs at 10000 uM GlcN6P (glucosamine-6-phosphate [5]): 7.94e-05 ± 2e-05 s⁻¹
